Here are results for one substance from article PMC1635243.

One may read the stoichiometry N as a count of units in the complex or per binding partner.

This assay has as its target recombinant T2 domain of xNAP1 (Xenopus nucleosome assembly protein), residues 38-282, histidine tagged (Xenopus laevis). Briefly: AUC.

“recombinant T2 domain of xNAP1 (Xenopus nucleosome assembly protein), residues 38-282, histidine tagged (domain or fragment)”: the stoichiometry N was in the range of 12 to 16 subunits.
